From US20050015820A1 come the findings set out here.

The target in assay [1] is µ opioid receptor (MOP-R) (mouse) (UniProt P42866). The assay can be described thus: cell-based or functional assay.
The target of assay [2] is melanocortin 3 receptor (MC3-R) (mouse) (UniProt P33033). As to the kind of experiment: cell-based or functional assay.
melanocortin 3 receptor (MC3-R) (mouse), sequence (P33033 whole entry): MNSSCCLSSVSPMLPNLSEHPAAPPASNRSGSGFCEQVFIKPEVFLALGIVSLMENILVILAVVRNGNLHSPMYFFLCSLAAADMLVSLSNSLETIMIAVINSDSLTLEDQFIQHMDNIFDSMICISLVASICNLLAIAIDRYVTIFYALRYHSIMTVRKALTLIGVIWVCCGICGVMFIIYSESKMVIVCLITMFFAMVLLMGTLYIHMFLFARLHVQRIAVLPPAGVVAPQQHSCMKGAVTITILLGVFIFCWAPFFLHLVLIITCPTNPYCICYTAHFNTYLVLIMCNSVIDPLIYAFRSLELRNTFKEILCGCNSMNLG

µ opioid receptor (MOP-R) (mouse), sequence (P42866 whole entry): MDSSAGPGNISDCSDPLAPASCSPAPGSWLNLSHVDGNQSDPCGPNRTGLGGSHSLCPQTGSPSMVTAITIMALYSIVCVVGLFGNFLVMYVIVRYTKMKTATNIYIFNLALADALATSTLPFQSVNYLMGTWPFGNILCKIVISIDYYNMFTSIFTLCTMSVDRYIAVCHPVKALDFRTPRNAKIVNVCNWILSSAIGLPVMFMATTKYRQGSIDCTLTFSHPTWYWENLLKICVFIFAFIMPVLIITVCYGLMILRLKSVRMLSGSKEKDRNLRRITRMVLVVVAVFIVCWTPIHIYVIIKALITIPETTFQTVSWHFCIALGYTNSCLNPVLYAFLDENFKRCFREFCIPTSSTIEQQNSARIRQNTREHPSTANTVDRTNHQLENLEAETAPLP

With “met-enkephalin (from UniProt P01210 100-104) (peptide)”, the hyperpolarization of the membrane potential of POMC cells (Met-Enk 30 µM, whole cell recording, n=10) in assay [1] lay in the range of 10 to 20 mV.
Consider D-Trp^8-γMSH (peptide), for which, in assay [2], the hyperpolarization of POMC neurons (7 nM, 9 of 15 neurons) was -5.5 mV and the increase of the frequency of GABAergic IPSCs recorded from POMC neurons (7 nM, 3 of 4 neurons) stood at 280%.
